{"source": "paper PMC7818228", "about": "“Laser‐facilitated epicutaneous immunotherapy with hypoallergenic beta‐glucan neoglycoconjugates suppresses lung inflammation and avoids local side effects in a mouse model of allergic asthma” (Allergy, 2020)", "assay_in_all_cases": "MST; in solution; Monolith NT.115 RED; Hill fit model for multiple binding; apparent dissociation constants (Kdapp); three independent binding experiments", "key": {"[1]": {"target": "soluble murine Fc-Dectin-1a receptor (mouse) (UniProt Q6QLQ4)", "sequence (Q6QLQ4 71-244)": "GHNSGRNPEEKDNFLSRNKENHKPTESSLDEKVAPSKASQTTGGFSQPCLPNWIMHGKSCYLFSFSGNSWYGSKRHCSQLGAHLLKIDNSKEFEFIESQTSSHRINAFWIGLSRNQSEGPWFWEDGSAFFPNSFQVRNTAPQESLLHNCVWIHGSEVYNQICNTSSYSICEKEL"}, "soluble receptor TLR5 [2]": {"target": "soluble receptor TLR5 (UniProt Q9JLF7)", "sequence (Q9JLF7 27-641)": "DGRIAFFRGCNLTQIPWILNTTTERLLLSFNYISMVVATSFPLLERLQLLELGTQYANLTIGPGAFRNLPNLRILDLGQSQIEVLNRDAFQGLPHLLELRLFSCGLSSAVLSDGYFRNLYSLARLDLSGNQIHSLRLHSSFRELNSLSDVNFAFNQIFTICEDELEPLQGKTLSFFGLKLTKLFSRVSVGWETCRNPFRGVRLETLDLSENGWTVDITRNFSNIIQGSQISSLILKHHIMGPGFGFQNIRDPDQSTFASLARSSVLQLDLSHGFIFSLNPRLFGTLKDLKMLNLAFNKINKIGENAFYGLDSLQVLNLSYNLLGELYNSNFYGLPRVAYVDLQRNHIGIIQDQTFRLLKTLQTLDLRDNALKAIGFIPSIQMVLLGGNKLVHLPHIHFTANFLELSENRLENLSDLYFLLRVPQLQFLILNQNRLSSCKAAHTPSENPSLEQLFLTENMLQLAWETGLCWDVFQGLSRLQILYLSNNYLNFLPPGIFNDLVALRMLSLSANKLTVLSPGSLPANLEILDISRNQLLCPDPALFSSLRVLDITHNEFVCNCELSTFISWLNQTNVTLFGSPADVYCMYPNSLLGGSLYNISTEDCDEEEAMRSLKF"}, "soluble receptor TLR5 [3]": {"target": "soluble receptor TLR5 (UniProt Q9JLF7 27-641, Supplement states soluble human TLR5 fused to an IgG1 Fc domain (Fc carrier left out; 2 copies assumed from Fc dimerisation); limits are the UniProt extracellular domain by convention; lysine/amine la)", "sequence (Q9JLF7 27-641)": "as above", "details": "both partners purified"}}, "data": [{"molecule": "laminarin-ovalbumin neoglycoconjugate (LamOVA) (from UniProt P01012 1-386)", "values": [{"measurement": "Kd", "setting": "[1]", "result": 170, "unit": "nM"}, {"measurement": "Kdapp counted on the laminarin concentration (carbohydrate to protein ratio 0.6)", "setting": "[1]", "result": 0.99, "unit": "µM"}, {"measurement": "Kdapp counted on the laminarin concentration (carbohydrate to protein ratio 2.5, anthrone method)", "setting": "[1]", "result": 4.22, "unit": "µM"}, {"measurement": "Kdapp (concentration basis not stated; compared with the 0.99 µM for Dectin-1)", "setting": "soluble receptor TLR5 [2]", "result": 6, "unit": "µM"}]}, {"molecule": "ovalbumin (EndoFit Ovalbumin, endotoxin-free) (natural protein, UniProt P01012 1-386, looked up, ovalbumin (OVA), endotoxin-free commercial preparation; crystal structure 1OVA named for it; Commercial ovalbumin; also called unconjugated OVA; soluble OVA; source: bought: InvivoGen (EndoFit Ovalbumin)) MGSIGAASMEFCFDVFKELKVHHANENIFYCPIAIMSALAMVYLGAKDSTRTQINKVVRFDKLPGFGDSIEAQCGTSVNVHSSLRDILNQITKPNDVYSFSLASRLYAEERYPILPEYLQCVKELYRGGLEPINFQTAADQARELINSWVESQTNGIIRNVLQPSSVDSQTAMVLVNAIVFKGLWEKAFKDEDTQAMPFRVTEQESKPVQMMYQIGLFRVASMASEKMKILELPFASGTMSMLVLLPDEVSGLEQLESIINFEKLTEWTSSNVMEERKIKVYLPRMKMEEKYNLTSVLMAMGITDVFSSSANLSGISSAESLKISQAVHAAHAEINEAGREVVGSAEAGVDAASVSEEFRADHPFLFCIKHIATNAVLFFGRCVSP", "values": [{"measurement": "Kd", "setting": "[1]", "result": 5330, "unit": "nM"}, {"measurement": "Kd", "setting": "soluble receptor TLR5 [3]", "result": "800 ± 300", "unit": "nM"}]}]}
